{
  "source": "the RNAGym collection of RNA variant scans (doi:10.1021/acssynbio.7b00057)",
  "parents": {"B1": {"name": "Pistol ribozyme (parent)", "chain": "GGGUCGUUGUUCCAUAAUCGCGUGGAUAUGGCACGCAAGUUUCUACCGGGCACCGUAAAUGUCCGACUGGAGCCGUUCGGGCGGCUAUAAACAGACCUCAGGCCCGAAGCGUGGCGGCACCUGCCGCCGGUGGUAAAAAAGAUCGGAAGAGCACACGUCU"}},
  "data": [
    {"variants_of": "B1", "assay": "aptazyme ON/OFF ratio, guanine; higher = stronger switching; co-transcriptional cleavage with and without guanine", "values": [
      {"variant": "U7G U11A C12A C13A", "aptazyme ON/OFF ratio": 1.17},
      {"variant": "U7G U10C C12G C13U", "aptazyme ON/OFF ratio": 1.14},
      {"variant": "U7G U10C C12G C13A", "aptazyme ON/OFF ratio": 1.09},
      {"variant": "U7G U10C C12G C13G", "aptazyme ON/OFF ratio": 1.04},
      {"variant": "U8A G9A U10A U11C C13U", "aptazyme ON/OFF ratio": 1.05},
      {"variant": "U8A G9A U10A U11C C13G", "aptazyme ON/OFF ratio": 1.04},
      {"variant": "U8A G9A U10A U11C C13A", "aptazyme ON/OFF ratio": 1.04},
      {"variant": "U8A G9A U10A U11A C12U C13G", "aptazyme ON/OFF ratio": 1.1},
      {"variant": "U8A G9A U10A U11A C12U C13U", "aptazyme ON/OFF ratio": 1.21},
      {"variant": "U8A G9A U10A U11A C12U C13A", "aptazyme ON/OFF ratio": 1.37},
      {"variant": "U7G U11G C13U", "aptazyme ON/OFF ratio": 1.1},
      {"variant": "U7G U11G C13A", "aptazyme ON/OFF ratio": 1.06},
      {"variant": "U7G U11G C13G", "aptazyme ON/OFF ratio": 1.08},
      {"variant": "U7G U10C U11C C13A", "aptazyme ON/OFF ratio": 1.06},
      {"variant": "U7G U10C U11C C13G", "aptazyme ON/OFF ratio": 1.01},
      {"variant": "U7G U10C U11C C13U", "aptazyme ON/OFF ratio": 1.05},
      {"variant": "U7G U10C U11G C12U C13G", "aptazyme ON/OFF ratio": 1.13},
      {"variant": "U7G U10C U11G C12U C13A", "aptazyme ON/OFF ratio": 1.11},
      {"variant": "U7G U10C U11G C12U C13U", "aptazyme ON/OFF ratio": 1.18},
      {"variant": "U7G U10A U11G C12A C13G", "aptazyme ON/OFF ratio": 1.09},
      {"variant": "U7G U10A U11G C12A C13A", "aptazyme ON/OFF ratio": 1.06},
      {"variant": "U7G U10A U11G C12A C13U", "aptazyme ON/OFF ratio": 1.11},
      {"variant": "U8A G9A U10A U11G C12G C13A", "aptazyme ON/OFF ratio": 1.21},
      {"variant": "U8A G9A U10A U11G C12G C13U", "aptazyme ON/OFF ratio": 1.29},
      {"variant": "U8A G9A U10A U11G C12G C13G", "aptazyme ON/OFF ratio": 1.4},
      {"variant": "U7G U10G C12G C13A", "aptazyme ON/OFF ratio": 1.21},
      {"variant": "U7G U10G C12G C13G", "aptazyme ON/OFF ratio": 1.07},
      {"variant": "U7G U10G C12G C13U", "aptazyme ON/OFF ratio": 1.12},
      {"variant": "U8A G9A U10A U11A C13G", "aptazyme ON/OFF ratio": 1.06},
      {"variant": "U8A G9A U10A U11A C13U", "aptazyme ON/OFF ratio": 1.09},
      {"variant": "U8A G9A U10A U11A C13A", "aptazyme ON/OFF ratio": 1.27},
      {"variant": "U8A G9A U10A C12U C13A", "aptazyme ON/OFF ratio": 1.2},
      {"variant": "U8A G9A U10A C12U C13U", "aptazyme ON/OFF ratio": 1.33},
      {"variant": "U8A G9A U10A C12U C13G", "aptazyme ON/OFF ratio": 1.24},
      {"variant": "U7G U10G U11A C12G C13A", "aptazyme ON/OFF ratio": 1.11},
      {"variant": "U7G U10G U11A C12G C13U", "aptazyme ON/OFF ratio": 1.1},
      {"variant": "U7G U10G U11A C12G C13G", "aptazyme ON/OFF ratio": 1.13},
      {"variant": "U7G U10C U11A", "aptazyme ON/OFF ratio": 1.32},
      {"variant": "U7G U10C U11G", "aptazyme ON/OFF ratio": 1.22},
      {"variant": "U7G U10C U11C", "aptazyme ON/OFF ratio": 1.07},
      {"variant": "U7G U11C C12G C13U", "aptazyme ON/OFF ratio": 1.14},
      {"variant": "U7G U11C C12G C13A", "aptazyme ON/OFF ratio": 1.2},
      {"variant": "U7G U11C C12G C13G", "aptazyme ON/OFF ratio": 1.09},
      {"variant": "U7G U10A U11A C12G C13U", "aptazyme ON/OFF ratio": 1.16},
      {"variant": "U7G U10A U11A C12G C13G", "aptazyme ON/OFF ratio": 1.16},
      {"variant": "U7G U10A U11A C12G C13A", "aptazyme ON/OFF ratio": 1.05},
      {"variant": "U7G U10G U11G C12A C13U", "aptazyme ON/OFF ratio": 1.13},
      {"variant": "U7G U10G U11G C12A C13G", "aptazyme ON/OFF ratio": 1.1},
      {"variant": "U7G U10G U11G C12A C13A", "aptazyme ON/OFF ratio": 1.08},
      {"variant": "U7G U10A U11G C12U C13G", "aptazyme ON/OFF ratio": 1.22},
      {"variant": "U7G U10A U11G C12U C13A", "aptazyme ON/OFF ratio": 1.17},
      {"variant": "U7G U10A U11G C12U C13U", "aptazyme ON/OFF ratio": 1.28},
      {"variant": "U7G U11C C13G", "aptazyme ON/OFF ratio": 1.08},
      {"variant": "U7G U11C C13A", "aptazyme ON/OFF ratio": 1.03},
      {"variant": "U7G U11C C13U", "aptazyme ON/OFF ratio": 1.07},
      {"variant": "U7G U10G U11C C12G C13A", "aptazyme ON/OFF ratio": 1.14},
      {"variant": "U7G U10G U11C C12G C13U", "aptazyme ON/OFF ratio": 1.35},
      {"variant": "U7G U10G U11C C12G C13G", "aptazyme ON/OFF ratio": 1.07},
      {"variant": "U8A C12A C13G", "aptazyme ON/OFF ratio": 1.13},
      {"variant": "U8A C12A C13U", "aptazyme ON/OFF ratio": 1.19},
      {"variant": "U8A C12A C13A", "aptazyme ON/OFF ratio": 1.24},
      {"variant": "U7G U10G C13U", "aptazyme ON/OFF ratio": 1.17},
      {"variant": "U7G U10G C13A", "aptazyme ON/OFF ratio": 1.29},
      {"variant": "U7G U10G C13G", "aptazyme ON/OFF ratio": 1.13},
      {"variant": "U7G U10A U11A C12U", "aptazyme ON/OFF ratio": 1.16},
      {"variant": "U7G U10A U11A C12G", "aptazyme ON/OFF ratio": 1.1},
      {"variant": "U8A G9A C12A C13U", "aptazyme ON/OFF ratio": 1.19},
      {"variant": "U8A G9A C12A C13G", "aptazyme ON/OFF ratio": 1.1},
      {"variant": "U8A G9A C12A C13A", "aptazyme ON/OFF ratio": 1.3},
      {"variant": "U7G U10G U11C C12A", "aptazyme ON/OFF ratio": 1.25},
      {"variant": "U7G U10G U11C C12G", "aptazyme ON/OFF ratio": 1.25},
      {"variant": "U7G U10G U11C C12U", "aptazyme ON/OFF ratio": 1.17},
      {"variant": "U7G U10A U11C C13A", "aptazyme ON/OFF ratio": 1.04},
      {"variant": "U7G U10A U11C C13G", "aptazyme ON/OFF ratio": 1.02},
      {"variant": "U7G U10A U11C C13U", "aptazyme ON/OFF ratio": 1.02},
      {"variant": "U7G U10C U11C C12A C13A", "aptazyme ON/OFF ratio": 1.08},
      {"variant": "U7G U10C U11C C12A C13G", "aptazyme ON/OFF ratio": 1.08},
      {"variant": "U7G U10C U11C C12A C13U", "aptazyme ON/OFF ratio": 1.11},
      {"variant": "U7G U10C U11A C12A C13A", "aptazyme ON/OFF ratio": 1.17},
      {"variant": "U7G U10C U11A C12A C13G", "aptazyme ON/OFF ratio": 1.06},
      {"variant": "U7G U10C U11A C12A C13U", "aptazyme ON/OFF ratio": 1.16},
      {"variant": "U7G U10A U11C C12A C13G", "aptazyme ON/OFF ratio": 1.2},
      {"variant": "U7G U10A U11C C12A C13A", "aptazyme ON/OFF ratio": 1.12},
      {"variant": "U7G U10A U11C C12A C13U", "aptazyme ON/OFF ratio": 1.18}
    ]}
  ]
}
